Measurements: patent US20100120894A1 (UNIVERSITY OF MASSACHUSETTS, published 2010)

B1: Full length human AIM2 (AS 1-356) C-terminally tagged with CFP (other, UniProt O14862 1-343, looked up, not shown: large carriers)
chain: MESKYKEILLLTGLDNITDEELDRFKFFLSDEFNIATGKLHTANRIQVATLMIQNAGAVSAVMKTIRIFQKLNYMLLAKRLQEEKEKVDKQYKSVTKPKPLSQAEMSPAASAAIRNDVAKQRAAPKVSPHVKPEQKQMVAQQESIREGFQKRCLPVMVLKAKKPFTFETQEGKQEMFHATVATEKEFFFVKVFNTLLKDKFIPKRIIIIARYYRHSGFLEVNSASRVLDAESDQKVNVPLNIIRKAGETPKINTLQTQPLGTIVNGLFVVQKVTEKKKNILFDLSDNTGKMEVLGVRNEDTMKCKEGDKVRLTFFTLSKNGEKLQLTSGVHSTIKVIKAKKKT
B2: PYHIN1-PYD (1-84) C-terminally tagged with CFP (other, human, UniProt Q6K0P9 1-84, looked up)
chain: MANNYKKIVLLKGLEVINDYHFRIVKSLLSNDLKLNPKMKEEYDKIQIADLMEEKFPGDAGLGKLIEFFKEIPTLGDLAETLKR
notes: range 1-84; also called IFIX PYD; not shown: C-terminal CFP from vector pEFBOS-C-term-CFP
B3: PYHIN2-PYD (1-84) C-terminally tagged with CFP (other, human, UniProt Q16666 1-84, looked up)
chain: MGKKYKNIVLLKGLEVINDYHFRMVKSLLSNDLKLNLKMREEYDKIQIADLMEEKFRGDAGLGKLIKIFEDIPTLEDLAETLKK
notes: range 1-84; also called IFI16 PYD; not shown: C-terminal CFP from vector pEFBOS-C-term-CFP
B4: PYHIN3-PYD (1-84) C-terminally tagged with CFP (other, human, UniProt P41218 1-84, looked up)
chain: MVNEYKKILLLKGFELMDDYHFTSIKSLLAYDLGLTTKMQEEYNRIKITDLMEKKFQGVACLDKLIELAKDMPSLKNLVNNLRK
notes: range 1-84; also called MNDA PYD; not shown: C-terminal CFP from vector pEFBOS-C-term-CFP

Key:
HA-tagged ASC = HA-tagged ASC (human, UniProt Q9ULZ3 1-195, limits assumed); assay: cell-based or functional assay
Chain of HA-tagged ASC (Q9ULZ3 whole entry): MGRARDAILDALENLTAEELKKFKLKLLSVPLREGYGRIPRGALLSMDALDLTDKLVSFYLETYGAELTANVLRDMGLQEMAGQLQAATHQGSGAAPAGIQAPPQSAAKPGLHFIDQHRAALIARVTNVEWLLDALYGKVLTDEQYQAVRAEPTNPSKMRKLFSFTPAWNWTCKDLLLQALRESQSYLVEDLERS

[1] = target: T1, ASC-YFP stably expressed in HEK293 cells (UniProt Q9ULZ3 1-195); assay: confocal microscopy, HEK293-ASC-YFP cells transfected with PYD-CFP
T1 construct: also called YFP-ASC; HEK293-ASC-YFP; not shown: YFP
T1 sequence (Q9ULZ3 whole entry): as above
Procedure: Fluorescence intensities of the green (YFP-ASC) and red (PYD-CFP) channels were quantified along selected lines (white lines) and the percentage of ASC-YFP speckles per transfected cells assessed (panel b). c) 293T cells were transfected with expression plasmids encoding HAtagged ASC and CFP-tagged constructs as in panel a. The protein levels of the CFP-tagged PYD proteins in cell lysates were assessed by immunoblot analysis (INPUT, upper panels). Cell extracts were immunoprecipitated (IP) with anti-HA antibodies and immunoblotted (WB) with anti-HA antibody and anti-CFP antibody (lower panel). d) ASC was immunoprecipitated from THP-1 cell lysates primed with Sendai virus, whereas beads without anti-ASC antibody served as a negative control. The presence of ASC, PYHIN-2 and AIM2 was assessed by immunoblot analysis in the cell lysate and the ASC immunoprecipitation. The band above the AIM2 band in the ASC immunoprecipitation corresponds to the heavy chain of the anti-ASC antibody that is also detected by the secondary antibody. E) 293T cells were transfected with a multimerized NF-″B luciferase reporter construct together with fixed amounts of constructs as in (a) alone or together with increasing amounts of ASC. Cellular NF-″B activation was quantified in cell lysates 24 hours after transfection. Data of one representative experiment out of three (panels a, b, c and d) or two (panel e) are depicted.
To study the possibility that these PYHIN proteins associated with ASC in the cytosol, C-terminally tagged CFP PYD-domain fusions were generated. Of note, the putative nuclear localization sequences were predicted to localize to the […] of these molecules. Consistent with these predictions, all of the PYD-CFP fusion proteins were localized in the cytoplasm and formed large cytosolic aggregates in a portion of the cells (FIG. 6).

Binder	NF-kappaB luciferase reporter activation in 293T cells (HA-tagged ASC) [fold]	binding result [1]
B1	≤ 60	–
B2	–	no binding
B3	–	no binding
B4	–	no binding
